These results are taken from doi:10.1101/2025.11.18.689095 (bioRxiv, 2025).

To fix the notation:
B1: human Tom70 (residues 108–608) (domain or fragment)
chain: MNSLDRAQAAKNKGNKYFKAGKYEQAIQCYTEAISLCPTEKNVDLSTFYQNRAAAFEQLQKWKEVAQDCTKAVELNPKYVKALFRRAKAHEKLDNKKECLEDVTAVCILEGFQNQQSMLLADKVLKLLGKEKAKEKYKNREPLMPSPQFIKSYFSSFTDDIISQPMLKGEKSDEDKDKEGEALEVKENSGYLKAKQYMEEENYDKIISECSKEIDAEGKYMAEALLLRATFYLLIGNANAAKPDLDKVISLKEANVKLRANALIKRGSMYMQQQQPLLSTQDFNMAADIDPQNADVYHHRGQLKILLDQVEEAVADFDECIRLRPESALAQAQKCFALYRQAYTGNNSSQIQAAMKGFEEVIKKFPRCAEGYALYAQALTDQQQFGKADEMYDKCIDLEPDNATTYVHKGLLQLQWKQDLDRGLELISKAIEIDNKCDFAYETMGTIEVQRGNMEKAIDMFNKAINLAKSEMEMAHLYSLCDAAHAQTEVAKKYGLKPPTL
notes: human Tom70 (translocase of outer mitochondria membrane 70), residues 108-608; N-terminal Avi tag, His6 tag, (GGS)5 linker and TEV site removed by TEV protease; also called hTom70; free Tom70; source: E. coli BL21 (DE3), purified (Ni-NTA, TEV cleavage, second Ni column, SEC); not shown: Avi, N-terminal, cleaved; His6, N-terminal, cleaved

Holding throughout (conditions): both partners purified
Assay [1] has as its target T1, biotinylated human Hsp90α (residues 1–732), tags not cleaved (human, UniProt P07900 1-732, biotin (enzymatic protein biotinylation kit)).
T1 construct: human Hsp90α, residues 1-732; N-terminal Avi tag, His6 tag, (GGS)5 linker and TEV site remain on the chain; held on streptavidin probes; also called biotinylated Hsp90; surface-immobilized Hsp90; source: E. coli BL21 Star (DE3) pLysS, purified (Ni-INDIGO, HiPrep Q; no TEV cleavage), enzymatically biotinylated; not shown: Avi, N-terminal, kept; His6, N-terminal, kept
Kind of assay: BLI + ITC; kon estimated indirectly as koff from BLI (immobilised biotinylated Hsp90) divided by KD from ITC (untagged Hsp90).

In assay [2] the target is T2, human Hsp90α (residues 1–732), full-length (human, UniProt P07900 1-732).
T2 construct: human Hsp90α, residues 1-732; also called full-length Hsp90; heat shock protein 90; source: E. coli BL21 Star (DE3) pLysS, purified (Ni-INDIGO, TEV cleavage, second Ni-INDIGO, HiPrep Q); not shown: Avi, N-terminal, cleaved; His6, N-terminal, cleaved
The assay is described as follows: ITC; Tom70 (400 μM), Tom70:Orf9b_(Helix) complex (400 μM), Tom70:Orf9b complex (500 μM) or truncation mutant complexes titrated into Hsp90 (20 μM); 20°C; 20 mM sodium phosphate pH 8, 150 mM NaCl, 2 mM TCEP, 10% glycerol; 1:1 binding model. A general note: In ITC the heat of successive injections is recorded.

Assay [3] deals with T2, human Hsp90α (residues 1–732), …. Kind of assay: NMR titration.
Assay [4] deals with B1. Kind of assay: ITC; Hsp90_(EEVD) (400–500 μM) titrated into Tom70 or its complexes (30 μM) in the cell; 20°C; 20 mM sodium phosphate pH 8, 150 mM NaCl, 2 mM TCEP, 10% glycerol; 1:1 binding model.

Where no end group is shown, it is not given here.

Regarding B1, the kon in assay [1] was 500000 M⁻¹ s⁻¹. In assay [2], this molecule had an equilibrium dissociation constant (Kd) of 3000 nM.

B2: ^19F-labeled Tom70 (5-fluoro-tryptophan, residues 108–608) (domain or fragment)
chain: MNSLDRAQAAKNKGNKYFKAGKYEQAIQCYTEAISLCPTEKNVDLSTFYQNRAAAFEQLQKWKEVAQDCTKAVELNPKYVKALFRRAKAHEKLDNKKECLEDVTAVCILEGFQNQQSMLLADKVLKLLGKEKAKEKYKNREPLMPSPQFIKSYFSSFTDDIISQPMLKGEKSDEDKDKEGEALEVKENSGYLKAKQYMEEENYDKIISECSKEIDAEGKYMAEALLLRATFYLLIGNANAAKPDLDKVISLKEANVKLRANALIKRGSMYMQQQQPLLSTQDFNMAADIDPQNADVYHHRGQLKILLDQVEEAVADFDECIRLRPESALAQAQKCFALYRQAYTGNNSSQIQAAMKGFEEVIKKFPRCAEGYALYAQALTDQQQFGKADEMYDKCIDLEPDNATTYVHKGLLQLQWKQDLDRGLELISKAIEIDNKCDFAYETMGTIEVQRGNMEKAIDMFNKAINLAKSEMEMAHLYSLCDAAHAQTEVAKKYGLKPPTL
modifications: 5-fluoro-tryptophan at W169 and W523
notes: human Tom70, residues 108-608; also called ^19F Tom70; 5F-Trp Tom70; source: E. coli BL21(DE3) in M9 media supplemented with 5-fluoro-tryptophan, purified as unlabeled Tom70; not shown: Avi, N-terminal, cleaved; His6, N-terminal, cleaved
As for B2, the binding result in assay [3] was “binds”.

B3: Hsp90_(EEVD) peptide (peptide)
peptide: YDTSRMEEVD-OH
notes: tyrosine added to aid with quantification; C-terminal residues 724-732 of human Hsp90α; 10 residues: an added N-terminal Tyr and nine Hsp90 residues; source: synthetic peptide (LifeTein)
Consider B3, for which, in assay [4], the “fold lower affinity than full-length Hsp90 for free Tom70” value stood at 4 fold.

The term kon denotes the rate constant with which the complex forms. Usually Kd stands for the free concentration of one partner at which half of the binding sites on the other are occupied at equilibrium, for simple one-to-one binding. Higher therefore signals a looser complex.
